The target in test [1] is T1, GPC3 on HepG2 cells (human, UniProt P51654 25-554).
T1 construct: whole, on cells; also called glypican-3
Nature of the test: FACS on HepG2 cells.
Description: The desired cells were expanded to a logarithmic growth phase in a T-75 cell culture flask, the medium was removed by pipetting, and the cells were washed twice with a PBS buffer, and digested with trypsin. Then a complete medium was added to stop the digestion, and the cells were blown into a single cell suspension. After counting, the cells were centrifuged, and the cell pellet was resuspended with an FACS buffer (PBS+2% fetal bovine serum) to 2×10⁶ cells/mL. The cell resuspension solution was added to a 96-well FACS reaction plate at 50 μl/well, and a humanized antibody sample to be tested was added at 50 μl/well for incubation at 4° C. for 1 h. […] After the plate was centrifuged and washed 3 times with a PBS buffer, 100 μl of the resulting solution was assayed and analyzed by FACS (FACS Canto™, purchased from BD Biosciences). Data analysis was performed by software (FlowJo) to obtain the mean fluorescence intensity (MFI) of the cells. Then, analysis was performed by software (GraphPad Prism8), data were fitted, and EC₅₀ values were calculated.

For test [2], the target named is T2, monkey GPC3-His protein (monkey).
T2 construct: Bought protein; also called monkey GPC3 protein
Nature of the test: ELISA, monkey GPC3-His coated; antibody 0.28 nM.
Description: (§1) The specific method is described as follows: The antigen protein was diluted with PBS to a final concentration of 1 μg/mL, and the diluent was added to a 96-well ELISA plate at 50 μL/well. The plate was sealed with a plastic film and incubated at 4° C. overnight, washed twice with PBS the next day, and a blocking solution [PBS+2% (w/w) BSA] was added for blocking at room temperature for 2 h. […] After incubation at 37° C. for 2 h, the plate was washed 3 times with PBS. A horseradish peroxidase (HRP)-labeled secondary antibody (purchased from Merck, Cat. No. AP113P) was added for incubation at 37° C. for 1 h, and the plate was washed 5 times with PBS. A TMB substrate was added at 50 μL/well for incubation at room temperature for 10 min, then a stop solution (1.0M HCl) was added at 50 μL/well.

Test [3] addresses T2, monkey GPC3-His protein. Put plainly: ELISA, monkey GPC3-His coated; antibody 1.39 nM. On the technique in general: An ELISA detects its analyte on a solid surface through an enzyme-linked reagent.
Description: as §1
Test [4] addresses T2, monkey GPC3-His protein. Put plainly: ELISA, monkey GPC3-His coated; antibody 6.94 nM.
Description: as §1
In test [5] the target is T2, monkey GPC3-His protein. Put plainly: ELISA, monkey GPC3-His coated; antibody 0.002 nM.
Description: as §1
For test [6], the target named is T2, monkey GPC3-His protein. Put plainly: ELISA, monkey GPC3-His coated; antibody 0.011 nM.
Description: as §1
In test [7] the target is T2, monkey GPC3-His protein. Nature of the test: ELISA, monkey GPC3-His coated; antibody 0.056 nM.
Description: as §1
Test [8] concerns the target T2, monkey GPC3-His protein. Put plainly: ELISA, monkey GPC3-His coated; antibody 34.72 nM.
Description: as §1
The target in test [9] is T2, monkey GPC3-His protein. Nature of the test: ELISA, monkey GPC3-His coated; antibody 0.0004 nM.
Description: as §1

Substitutions are numbered along the chain they refer to.

B1: hAb006LH3L1e (antibody, human IgG1, V domains shown)
VH: EVQLVQSGAEVKKPGSSVKVSCKASGYTFTDYEIHWVRQAPGQGLEWMGAIDPKTGNTAYNQKFMGRVTLTADKSTSTAYMELSSLRSEDTAVYYCTRYFSFAYWGQGTLVTVSS
VL: DIVMTQTPLSLPVTPGEPASISCRSSQTFVHSNVNTYLQWYLQKPGQSPQLLIYKVSNRFSGVPDRFSGSGSGTDFTLKISRVEAEDVGVYYCFQGSHVPYTFGQGTKLEIK
notes: Humanized F3.38.7, H3+L1e
With B1, in test [1], the EC50 (commonly the concentration giving half of the maximal effect) was 1.01 nM. Moreover, the “Max MFI” value in test [1] was 2780. The OD450 nm in test [2] was determined as 1.14; in test [3] it was 1.07; in test [4], 1.22; in test [5] it was 0.114; in test [6] it was 0.24; in test [7], 0.67. Besides, the OD450 nm was 1.26 in test [8] and 0.066 in [9].

B2: hAb007LH1L1e (antibody, human IgG1, V domains shown)
VH: B1 VH with T30S, I34M, A50T, K54E, M65K, L70I, Y99P, F100Y, F102L, A103T
VL: B1 VL with T28S, N35D
notes: Humanized F3.81.19, H1+L1e
B2 had an EC50 in test [1] of 10.1 nM. The “Max MFI” value in test [1] came to 2910. Further, the OD450 nm is 0.399 in test [2]; 0.848 in test [3]; 1.17 in test [4]; 0.148 in test [5]; 0.14 in test [6]; 0.148 in test [7]. For the same molecule, the OD450 nm in test [8] was determined as 1.14; in [9] it was 0.043.

B3: hAb007LH1L1d (antibody, human IgG1, V domains shown)
VH: B1 VH with T30S, I34M, A50T, K54E, M65K, L70I, Y99P, F100Y, F102L, A103T
VL: B1 VL with T28S, V34S, N35D
notes: Humanized F3.81.19, H1+L1d
B3 registered an EC50 in test [1] of 4.39 nM. Besides, the “Max MFI” value in [1] was found to be 3830. The OD450 nm in test [2] came to 0.752; in [3], 1.2; in test [4], 1.3; in test [5], 0.078; in [6], 0.09; in [7], 0.235. Besides, the OD450 nm in test [8] came to 1.25; in [9], 0.053.

B4: hAb007LH1L1c (antibody, human IgG1, V domains shown)
VH: B1 VH with T30S, I34M, A50T, K54E, M65K, L70I, Y99P, F100Y, F102L, A103T
VL: B1 VL with T28S, V34A, N35D
notes: Humanized F3.81.19, H1+L1c
In test [1], B4 displayed an EC50 of 3.67 nM. The “Max MFI” value in [1] was determined as 3770. Besides, the OD450 nm is 0.744 in test [2]; 1.3 in [3]; 1.26 in test [4]; 0.069 in [5]; 0.103 in test [6]; 0.268 in test [7]. For the same molecule, the OD450 nm in test [8] was determined as 1.25; in test [9], 0.05.

Values taken from patent US20260116991A1 (HAINAN SIMCERE ZAIMING PHARMACEUTICAL, published 2026).
